The record followed here is doi:10.1101/205575.

Data set [1] has as its system AsCpf1 (Cas12a) (Acidaminococcus sp.?). The data set is described as follows: smFRET titration. Particulars: amino-dT in non-target strand, pH 8.0 ([…]) or pH 7.0 ([…].
The subject of a further data set is FnCpf1 (Cas12a). The data set is described as follows: smFRET titration. Particulars: amino-dT in non-target strand, pH 8.0 ([…]) or pH 7.0 ([…].

For the substance “cognate DNA target (nPD=0) with Cy5 guide-RNA”, the dissociation constant Kd in data set [1] is 0.1 nM; in the data set with FnCpf1 (Cas12a), 0.27 nM.

By Kd is commonly meant the equilibrium constant for the complex coming apart.
